In this test the target is TG (triacylglycerol). As to the kind of experiment: TG binding assay with purified proteins, TLC of radiolabeled TG. As to conditions: 2.5 mol % TG; parent: est. 1.5; read off a plot.

Regarding LDAC (m1 + m2) F57A; S61A; L105A; S109A, the response (relative to MBOAT7) came to 1.2.

The values above are taken from paper doi:10.1101/2025.08.12.669882.
